In US20150239991A1 (GLENMARK PHARMACEUTICALS S A, published 2015):
Where a chain is given by its changes, count along the chain named. Names may count otherwise. Read-outs that look alike come from different tables or passages of the source.

Columns and labels:
[1] = target: T1, Protein G (group C and G Streptococci, UniProt P19909 303-427); assay: Protein G gradient mode chromatography (HiTrap Protein G HP column), A280 trace against pH gradient
T1 construct: Two commercial resins used (Sepharose 4 Fast Flow for capture-elution, HiTrap HP for gradient); also called Protein G Sepharose™ 4 Fast Flow resin; HiTrap™ Protein G HP column

[2] = target: T1, Protein G; assay: as above; remark: listed apart in the source
[3] = target: T1, Protein G; assay: as above; remark: listed apart in the source
[4] = target: T2, human FcRn (human, UniProt P55899 24-297; P61769 21-119); assay: SPR on human FcRn at pH 6.0, steady state KD expressed as ratio to the unmodified IGHG1 control
T2 construct: range 24-297;range 21-119; Alpha chain non-covalently associated with beta2-microglobulin; used as analyte at pH 6.0; also called human neonatal Fc receptor; soluble form of the extracellular region of the human FcRn
T2 sequence (P55899 24-297 limits assumed, form in doubt, chain 1 of 2): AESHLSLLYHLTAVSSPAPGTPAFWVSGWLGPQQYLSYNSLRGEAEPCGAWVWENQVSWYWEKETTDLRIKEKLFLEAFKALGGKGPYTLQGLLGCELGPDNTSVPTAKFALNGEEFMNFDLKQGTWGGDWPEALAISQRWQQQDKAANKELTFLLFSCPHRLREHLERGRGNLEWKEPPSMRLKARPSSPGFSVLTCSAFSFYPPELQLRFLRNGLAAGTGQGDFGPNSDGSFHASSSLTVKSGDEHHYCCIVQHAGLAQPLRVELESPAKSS
T2 sequence (P61769 21-119 limits assumed, form in doubt, chain 2 of 2): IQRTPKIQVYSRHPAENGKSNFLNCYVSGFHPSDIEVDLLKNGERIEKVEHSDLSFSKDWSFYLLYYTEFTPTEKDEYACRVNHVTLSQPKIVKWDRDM

[5] = target: T2, human FcRn; assay: SPR (BIAcore 2000): immunoglobulin amine-coupled to a CM5 chip, human FcRn injected as analyte at pH 6.0, steady state affinity model
[6] = target: T3, MabSelect™ Protein A (Staphylococcus aureus, UniProt P38507 37-327); assay: Protein A gradient mode chromatography (HiTrap MabSelect column), A280 trace against pH gradient
T3 construct: also called HiTrap™ MabSelect™ Protein A column; MabSelect™ resin

B1: Fc M252A/E380A/E382A/Y436A/Q438A (other)
chain: DKTHTCPPCPAPELLGGPSVFLFPPKPKDTLAISRTPEVTCVVVDVSHEDPEVKFNWYVDGVEVHNAKTKPREEQYNSTYRVVSVLTVLHQDWLNGKEYKCKVSNKALPAPIEKTISKAKGQPREPQVYTLPPSRDELTKNQVSLTCLVKGFYPSDIAVAWASNGQPENNYKTTPPVLDSDGSFFLYSKLTVDKSRWQQGNVFSCSVMHEALHNHATAKSLSLSPGK
notes: Homo-dimeric human IGHG1 Fc variant, EU numbering
Does B1 bind [1]?
Result: no binding

B2: Fc S426M/M428G/H433D/N434A (other)
chain: B1 chain with A32M, A160E, A162E, S206M, M208G, H213D, N214A, A216Y, A218Q
notes: as for B1
Does B2 bind [2]?
Result: no binding

B3: Fc S254M/E380M/E382L/S426M/M428G (other)
chain: B1 chain with A32M, S34M, A160M, A162L, S206M, M208G, A216Y, A218Q
notes: as for B1
Does B3 bind [3]?
Result: no binding

B4: Anti-hCD19 FAB-Fc S426M/M428G/H433D/N434A (antibody, human IgG1, kappa)
heavy chain: QVQLVQSGGGVVQPGRSLRLSCAASGVSLPDYGVSWVRQAPGKGLEWVAVIWGSETTYYNSALKSRFTISRDNSKNTLYLQMNSLRAEDTAVYYCAKHYYYGGSYAMDYWGQGTLVTVSSASTKGPSVFPLAPSSKSTSGGTAALGCLVKDYFPEPVTVSWNSGALTSGVHTFPAVLQSSGLYSLSSVVTVPSSSLGTQTYICNVNHKPSNTKVDKKVEPKSCDKTHTCPPCPAPELLGGPSVFLFPPKPKDTLMISRTPEVTCVVVDVSHEDPEVKFNWYVDGVEVHNAKTKPREEQYNSTYRVVSVLTVLHQDWLNGKEYKCKVSNKALPAPIEKTISKAKGQPREPQVYTLPPSRDELTKNQVSLTCLVKGFYPSDIAVEWESNGQPENNYKTTPPVLDSDGSFFLYSKLTVDKSRWQQGNVFSCMVGHEALDAHYTQKSLSLSPGK
light chain: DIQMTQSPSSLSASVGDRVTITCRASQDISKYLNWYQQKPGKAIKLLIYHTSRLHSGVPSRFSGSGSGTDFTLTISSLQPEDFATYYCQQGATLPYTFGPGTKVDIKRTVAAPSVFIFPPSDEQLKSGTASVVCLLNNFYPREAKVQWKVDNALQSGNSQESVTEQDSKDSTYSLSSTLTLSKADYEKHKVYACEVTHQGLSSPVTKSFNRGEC
With B4 as the binder, how does the “KD ratio (IGHG1/mutant)” value [4] read?
The value was 0.48.

B5: anti-hCD19 FAB-Fc 133 (antibody, human IgG1, kappa)
heavy: QVQLVQSGGGVVQPGRSLRLSCAASGVSLPDYGVSWVRQAPGKGLEWVAVIWGSETTYYNSALKSRFTISRDNSKNTLYLQMNSLRAEDTAVYYCAKHYYYGGSYAMDYWGQGTLVTVSSASTKGPSVFPLAPSSKSTSGGTAALGCLVKDYFPEPVTVSWNSGALTSGVHTFPAVLQSSGLYSLSSVVTVPSSSLGTQTYICNVNHKPSNTKVDKKVEPKSCDKTHTCPPCPAPELLGGPSVFLFPPKPKDTLMISRTPEVTCVVVDVSHEDPEVQFKWYVDGVEVHNAKTKPREEQYNSTFRVVSVLTVLHQDWLNGKEYKCKVSNKALPAPIEKTISKTKGQPREPQVYTLPPSREEMTKNQVSLTCLVKGFYPSDIAVEWESSGQPENNYNTTPPMLDSDGSFFLYSKLTVDKSRWQQGNIFSCSVMHEALHNRFTQKSLSLSPGK
light: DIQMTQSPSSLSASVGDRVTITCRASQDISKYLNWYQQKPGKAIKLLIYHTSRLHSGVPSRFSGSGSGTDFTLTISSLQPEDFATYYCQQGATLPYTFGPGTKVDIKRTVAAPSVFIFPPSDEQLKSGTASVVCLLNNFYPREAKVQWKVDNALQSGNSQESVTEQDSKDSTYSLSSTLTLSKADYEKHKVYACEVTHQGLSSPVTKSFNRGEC
notes: copies: 2 + 2
With B5 as the binder, how does the “KD ratio (IGHG1/mutant)” value [4] read?
Its value is 0.73.

What about the Kd [5] of the same binder?
Its Kd is 2680 nM.

B6: anti-hCD19 FAB-Fc 113 (antibody, human IgG1, kappa)
heavy: B5 heavy with Q277K, K279N, F303Y, T342A
light: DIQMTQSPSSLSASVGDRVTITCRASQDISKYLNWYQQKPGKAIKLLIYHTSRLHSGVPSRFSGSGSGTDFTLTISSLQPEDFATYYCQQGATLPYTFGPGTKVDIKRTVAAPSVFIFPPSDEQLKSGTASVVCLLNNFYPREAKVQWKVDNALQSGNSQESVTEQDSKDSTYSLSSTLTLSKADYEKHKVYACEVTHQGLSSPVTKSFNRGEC
notes: copies: 2 + 2
B6 was tested. Which “KD ratio (IGHG1/mutant)” value [4] did it give?
Its value is 0.76.

B7: Anti-HER2 FAB R19G/T57A/Y59A (Fab)
heavy chain: EVQLVESGGGLVQPGGSLGLSCAASGFNIKDTYIHWVRQAPGKGLEWVARIYPTNGYARAADSVKGRFTISADTSKNTAYLQMNSLRAEDTAVYYCSRWGGDGFYAMDYWGQGTLVTVSSASTKGPSVFPLAPSSKSTSGGTAALGCLVKDYFPEPVTVSWNSGALTSGVHTFPAVLQSSGLYSLSSVVTVPSSSLGTQTYICNVNHKPSNTKVDKKVEPKSC
light chain: not shown
notes: also called combination R19G/T57A/Y59A
Does B7 bind [6]?
Result: no binding
